Experimental data from patent US20250066499A1 (SUNSHINE GUOJIAN PHARMACEUTICAL SHANGHAI, published 2025).
Changes are numbered by the printed parent chain.

Key:
Test in all cases: ELISA; decline multiple of EC50 against CD73-ND
[1] = target: T1, CD73-ND-his (human, UniProt P21589 27-317)
T1 construct: Biotinylated and captured on streptavidin in the ELISA
T1 sequence: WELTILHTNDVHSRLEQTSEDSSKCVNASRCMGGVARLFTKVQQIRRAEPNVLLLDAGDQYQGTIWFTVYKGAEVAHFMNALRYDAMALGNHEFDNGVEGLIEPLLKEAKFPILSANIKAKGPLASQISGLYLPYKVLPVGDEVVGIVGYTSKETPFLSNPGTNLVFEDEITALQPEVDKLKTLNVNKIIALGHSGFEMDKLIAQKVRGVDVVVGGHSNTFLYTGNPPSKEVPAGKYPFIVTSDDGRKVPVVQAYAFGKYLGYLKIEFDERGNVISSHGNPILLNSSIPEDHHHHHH
Experimental: (§1) The ELISA plates were coated with SA protein diluted to 1.5 μg/mL in coating buffer (50 mM carbonate coating buffer, pH 9.6) and incubated overnight at 4° C. The supernatant was discarded, and the plates were washed three times with PBST. Then, 5% skimmed milk powder prepared with PBS was added for blocking and the plates were incubated for 2 h at 37° C. After washing the plates once with PBST, CD73-biotin protein (prepared by biotinylating CD73-His protein according to the EZ-Link NHS-Biotin Reagent instructions) was diluted to 0.5 μg/mL and added at 100 μL/well for incubation at room temperature for 1 h. The plates were washed three times with PBST, and the prepared murine-derived monoclonal antibodies against human CD73 were serially diluted with 1% BSA buffer prepared with PBST and added to the ELISA plates at 100 μl/well. The plates were incubated at 37° C. for 1 h. After washing the plates three times with PBST, HRP-labeled goat anti-mouse IgG secondary antibody was added and the plates were incubated for 30 min at 37° C. After washing the plates three times with PBST, the residual droplets were patted dry on absorbent paper as much as possible. Then, 100 μl of TMB color developing solution was added to each well, and the plates were incubated in the dark at room temperature for 5 min for color development. Subsequently, 50 μl of 2M H₂SO₄ stop solution was added to each well to terminate the substrate reaction. The OD values were read at 450 nm using a multimode microplate reader to analyze the binding ability of the tested antibodies to the target antigen human CD73-His.
(§2) Referring to the experimental method in Example 3, the affinity of 48A11-HuV33 for various mutant proteins of CD73-ND was determined. The SA protein was diluted to 1 μg/mL for coating the ELISA plates, and the biotinylated CD73 protein (CD73-biotin) was used at a concentration of 0.1 μg/mL.

[2] = target: T2, CD73-ND-V144A (human, UniProt P21589 27-317)
T2 construct: Alanine mutant of CD73-ND
T2 sequence: T1 sequence with V144A
Experimental: as §1, §2

[3] = target: T3, CD73-ND-K180A (human, UniProt P21589 27-317)
T3 construct: Alanine mutant of CD73-ND
T3 sequence: T1 sequence with K180A
Experimental: as §1, §2

[4] = target: T4, CD73-ND-L181A (human, UniProt P21589 27-317)
T4 construct: Alanine mutant of CD73-ND
T4 sequence: T1 sequence with L181A
Experimental: as §1, §2

[5] = target: T5, CD73-ND-T183A (human, UniProt P21589 27-317)
T5 construct: Alanine mutant of CD73-ND
T5 sequence: T1 sequence with T183A
Experimental: as §1, §2

[6] = target: T6, CD73-ND-N185A (human, UniProt P21589 27-317)
T6 construct: Alanine mutant of CD73-ND
T6 sequence: T1 sequence with N185A
Experimental: as §1, §2

B1: 48A11-HuV33 (antibody, human IgG4, V domains shown)
VH: QVQLVQSGAEVKKPGASVKVSCKASGYTFTSYWMHWVRQAPGQGLEWIGEINPSIGRTNYNEKFKSRVTLTRDTSTSTAYMELSSLRSEDTAVYYCARRVYGTMDYWGQGTLVTVSS
VL: DIQMTQSPSSLSASVGDRVTITCKASQDINSYLSWFQQKPGKSPKLLIYRANIWVDGVPSRFSGSGSGQDYTFTISSLQPEDIATYYCLQYDELYTFGQGTKVEIK
notes: Humanized
Q: Which “Ratio(EC50)” value [1] does the source give for B1 here?
A: The value was 1 fold.

Q: And the “Ratio(EC50)” value [2]?
A: The value was 2.5 fold.

Q: What about the “Ratio(EC50)” value [3] of the same binder?
A: The value was 2.7 fold.

Q: And the “Ratio(EC50)” value [4]?
A: Its value is 1.9 fold.

Q: What about the “Ratio(EC50)” value [5] of the same binder?
A: Its value is 1.4 fold.

Q: And the “Ratio(EC50)” value [6]?
A: The value was 1.6 fold.
